T1: hSEMA4D ECD-His (His-tagged human SEMA4D protein extracellular domain, Met22-Arg734) (human, UniProt Q92854 22-734)
T1 construct: Expressed in CHO-S cells, purified on Ni column; also called protein immunogen; immunogen A; not shown: His tag of the pCP vector
T1 sequence: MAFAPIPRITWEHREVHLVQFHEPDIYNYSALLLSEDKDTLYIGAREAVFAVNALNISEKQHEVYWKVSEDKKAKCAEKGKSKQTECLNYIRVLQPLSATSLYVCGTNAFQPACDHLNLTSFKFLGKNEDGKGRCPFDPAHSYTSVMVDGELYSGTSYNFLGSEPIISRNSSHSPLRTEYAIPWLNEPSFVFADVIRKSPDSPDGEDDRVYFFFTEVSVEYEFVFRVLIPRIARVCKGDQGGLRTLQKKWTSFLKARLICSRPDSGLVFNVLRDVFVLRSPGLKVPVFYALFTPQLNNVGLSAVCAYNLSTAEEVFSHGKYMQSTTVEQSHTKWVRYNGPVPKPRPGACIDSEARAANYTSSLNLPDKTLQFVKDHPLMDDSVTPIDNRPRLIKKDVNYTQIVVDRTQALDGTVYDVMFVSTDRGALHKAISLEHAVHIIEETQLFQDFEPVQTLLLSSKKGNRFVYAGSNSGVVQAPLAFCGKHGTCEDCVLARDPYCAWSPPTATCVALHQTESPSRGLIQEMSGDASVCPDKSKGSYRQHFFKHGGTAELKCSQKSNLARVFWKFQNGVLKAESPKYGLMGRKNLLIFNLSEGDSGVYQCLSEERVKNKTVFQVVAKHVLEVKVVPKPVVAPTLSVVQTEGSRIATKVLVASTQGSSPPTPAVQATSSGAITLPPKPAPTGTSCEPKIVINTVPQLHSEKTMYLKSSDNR

T2: mouse SEMA4D, full length, on CHO-K1 cells (CHO-K1 mSEMA4D) (mouse, UniProt O09126 24-861)
T2 construct: whole, on cells; also called murine SEMA4D recombinant cells
T2 sequence (looked up): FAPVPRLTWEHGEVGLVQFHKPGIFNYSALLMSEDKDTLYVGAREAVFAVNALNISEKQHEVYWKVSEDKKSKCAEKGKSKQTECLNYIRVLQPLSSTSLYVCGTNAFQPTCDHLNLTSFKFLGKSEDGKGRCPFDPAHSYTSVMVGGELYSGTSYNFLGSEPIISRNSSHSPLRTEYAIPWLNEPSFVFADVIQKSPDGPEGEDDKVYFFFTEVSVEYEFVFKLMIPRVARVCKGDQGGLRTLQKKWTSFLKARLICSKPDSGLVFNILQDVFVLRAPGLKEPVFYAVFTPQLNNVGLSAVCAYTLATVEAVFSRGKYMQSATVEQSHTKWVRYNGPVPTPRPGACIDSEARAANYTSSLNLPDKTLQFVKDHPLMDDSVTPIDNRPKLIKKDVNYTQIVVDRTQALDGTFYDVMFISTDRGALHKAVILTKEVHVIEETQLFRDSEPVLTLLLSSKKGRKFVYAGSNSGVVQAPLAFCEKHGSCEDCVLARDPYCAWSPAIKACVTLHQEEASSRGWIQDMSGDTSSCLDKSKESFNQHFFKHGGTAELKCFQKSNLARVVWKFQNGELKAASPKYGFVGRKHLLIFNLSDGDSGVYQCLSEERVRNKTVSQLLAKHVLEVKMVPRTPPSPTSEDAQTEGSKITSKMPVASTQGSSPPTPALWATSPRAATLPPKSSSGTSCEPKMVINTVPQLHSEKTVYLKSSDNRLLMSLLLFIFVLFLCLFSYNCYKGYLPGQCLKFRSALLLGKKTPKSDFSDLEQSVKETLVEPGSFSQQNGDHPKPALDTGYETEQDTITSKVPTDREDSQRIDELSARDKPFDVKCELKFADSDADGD


Columns and labels:
[1] = target: T1, hSEMA4D ECD-His (His-tagged human …); assay: ELISA, coated hSEMA4D ECD-His; Ab 0.00213 nM
Experimental: (§1) First, hSEMA4D ECD-His was diluted with PBS to a final concentration of 1.0 μg/mL, and then was added to a 96-well ELISA plate, 100 μL per well, sealed with plastic film and incubated overnight at 4° C. On the next day, the plate was washed with a plate washing solution, that is, PBS buffer containing 0.05% (v/v) Tween20, for 4 times, and added with blocking solution, that is, PBS buffer containing 0.05% (v/v) Tween20 and 2% (w/w) BSA, blocked at 37° C. for 1 hour. The blocking solution was poured out and the plate was washed 4 times with the plate washing solution. 100 μL of the purified leading antibodies obtained in Examples 1 and 2 was added to each well. After incubation at 37° C. for 1 hour, the plate was washed 4 times with a plate washing solution. 100 μL of horseradish peroxidase (HRP) labeled secondary antibody (purchased from Sigma) was added at a dilution of 1:10000 to each well, and the plate was incubated at 37° C. for 1 hour, and washed 4 times with a plate washing solution. 100 μL TMB substrate was added to each well, and the plate was incubated at room temperature for 5 minutes, and added with 100 μL stop solution (1.0N HCl) to each well. A microplate reader (SpectraMax M5e, purchased from Molecular Device) was used to read the A450 nm value. […] Wherein, the data in the table was the OD450 nm value.

[2] = target: T2, mouse SEMA4D, full length, on CHO-K1 …; assay: FACS, CHO-K1 mSEMA4D cells; Ab 0.107 nM
Experimental: After the cells were counted, they were diluted with PBS to 2×10⁶ cells per milliliter. After washing, 100 μL of diluted and purified leading antibodies was added to each well and the plate was incubated for 1 hour on ice. […] Cells were washed 2 times by centrifugation with FACS buffer. The cells were suspended with 200 μL of FACS buffer, FACS (FACS Verse, purchased from BD) was used to detect and analyze the results.

[3] = target: T1, hSEMA4D ECD-His (His-tagged human …); assay: ELISA, coated hSEMA4D ECD-His; Ab 0.0107 nM
Experimental: as §1

[4] = target: T1, hSEMA4D ECD-His (His-tagged human …); assay: ELISA, coated hSEMA4D ECD-His; Ab 0.00427 nM
Experimental: as §1

Row | OD450 nm [1] | MFI [2] | OD450 nm [3] | OD450 nm [4] | Binder
1 | 0.11 | 30.4 | 0.25 | 0.0851 | 42B7G2 (antibody, V domains shown, Mouse monoclonal antibody purified from hybridoma supernatant on protein A) VH: QVQLQQSGAELARPGASVKLSCKASGYTFTDYGISWVKQRTGQGLEWIGEIYLRNDNSYYNEKFKGKATLTADKSSNTAYMELRSLTSEDSAVYFCARWGDHGNNYEDAMDYWGQGTSVTVSS VL: DIVLTQSPASLAMSLGKRATISCRASESVSIIGSNLIHWYQQKPGQPPKLLIYHASNLETGVPARFSGSGSRTDFTLTIDPVEEDDVAIYYCLQSRKVPYTFGGGTKLEIK
2 | 0.0929 | 29.7 | 0.131 | 0.0638 | 37F11F9 (antibody, V domains shown, Mouse monoclonal antibody purified from hybridoma supernatant on protein A) VH: EVQLQQSGPVLVKPGASVKMSCKASGYTFTDYYMNWVKQSHGKSLEWIGLINPYSGGSTFNQKFKAKATLTVDKSSSSAYMDLNSLTSEDSAVYYCARVGDGYYGVTHGMDYWGQGTSVTVSS VL: DIVMTPSQKFMSTTVGDRVSITCKASQNVGTAVAWYQQKPGQSPTILIYSASNRYTGVPDRFTGSGSGTDFTLTISNMKSEDLADYFCQQYYIYPFTFAAGTKLELK
3 | 0.0738 | 30.5 | 0.0878 | 0.0744 | 38H2E3 (antibody, V domains shown, Mouse monoclonal antibody purified from hybridoma supernatant on protein A) VH: EFQLQQSGPEVVKPGASVKISCKASGYSFTDYNMNWMKQSKGKSLEWIGVISPDYGTTTYNQNFKDKATLTVDQSSSTAYMQLNSLTSEDSAVYYCAKDMYYVYAYYTMDYWGHGTSVTVSS VL: DVVMTQTPLSLPVSLGDQASISCRSSQSLVHSNGHTYLHWYLQRPGQSPTLLIYKVSNRFSGVPDRVSGSGSGTDFTLKISRVEAEDLGVYFCSQGTHVPRTFGGGTKLEIK

The next lines start with the binder.

Row | Binder | OD450 nm [1] | MFI [2] | OD450 nm [3] | OD450 nm [4]
4 | 37C4F7 (antibody, V domains shown, Mouse monoclonal antibody purified from hybridoma supernatant on protein A) VH: EFQLQQSGPEVVKPGASVKISCKASGYSFTDYNMNWMKQSKGKSLEWIGVINPNYGTTTYNQNFKGKATLTVDQSSSTAYMQLNSLTSEDSAVYYCARDMYYVYAYYTMDYWGQGTSVTVSS VL: DVVMTQTPLSLPVSLGDQASISCRSSQSLVHSNGHTYLHWYLQRPGQSPTLLIYKVSNRFSGVPDRFSGSGSGTDFTLKISRVEAEDLGVYFCSQGTHVPWTFGGGTKLEIK | 0.0673 | 30.1 | 0.0864 | 0.0623
5 | 32C8F10 (antibody, V domains shown, Mouse monoclonal antibody purified from hybridoma supernatant on protein A) VH: EVQLQQSGAELVRPGASVKLSCTASGFNIKDEYIHWVKQRPEQGLEWIGWIDPANGHTEYASRFQAKATITADTSSNTAYLQLSSLTSEDTAVYYCTTGDYDGFAYWGQGTLVTVST VL: QIVLTQSPAIMSASPGEKVTISCSARSSVSYMYWYQQKPGSSPKPWIYRTSNLASGVPARFSGSGSGTSYSLTISSMEAEDAATYYCQHYHTYPYTFGGGTKLEIK | 0.0858 | 30.2 | 0.207 | 0.0685
6 | 31C11G2 (antibody, V domains shown, Mouse monoclonal antibody purified from hybridoma supernatant on protein A) VH: EVQLQQSGAELVRPGASVKLSCTASGFNIKDEYIHWVKQRPEQGLEWIGWIDPANGHTEYASRFQAKATITADTSSNTAYLQLSSLTSEDTAVYYCTTGDYDGFVYWGQGTLVTVST VL: QIVLTQSPAIMSASPGEKVTIFCSARSSVSYMYWYQQKPGSSPKPWIYRTSNLASGVPARFSGSGSGTSYSLTISSMEAEDAATYYCQHYHTYPYTFGGGTKLEIK | 0.141 | 30.6 | 0.337 | 0.0939
7 | 31G10C5 (antibody, V domains shown, Mouse monoclonal antibody purified from hybridoma supernatant on protein A) VH: EVQLQQSGAELVRPGASVKLSCTASGFNIKDDYIHWVKQRPEQGLEWIGWIDPANGHIEYASNFQAKATITADTSSNTAYLQLSSLTSEDTAVYYCTTGDYDGFTYWGQGTLVTVST VL: QIVLTQSPAIMSASPGEKVTISCSARSSVSYMYWYQQKPGSSPKPWIYRTSNLASGVPARFSGSGSGTSYSLTISSMEAEDAATYYCQHYHTYPYTFGGGTKLEIK | 0.109 | 29.6 | 0.197 | 0.0915

Reference: patent publication US20220073608A1 (JIANGSU HUAIYU PHARMACEUTICAL, published 2022)
